Reference: article PMC2888265
Where two headings read alike, the source gives them in different places.

Legend:
Experiment in all cases: crystal structure
[1] = molecular target: Teg12 (uncultured bacterium (DNA extracted directly from desert soil))
[2] = molecular target: Teg12 (uncultured bacterium (DNA extracted directly from desert soil)); remark: listed apart in the source
[3] = molecular target: Teg12 (uncultured bacterium (DNA extracted directly from desert soil)); remark: listed apart in the source

- stoichiometry N [1]: 2
- stoichiometry N [2]: 2
- stoichiometry N [3]: 2
Substance: Teg12 (enzyme)
